Data from patent publication US5690954A, “Enhanced uptake drug delivery system having microspheres containing an active drug and a bioavailability improving material” (priority 1987, dated 1997).

Assays:
[1] = intranasal with Laureth 9; cited from earlier work
[2] = Bioavailability enhancement by microspheres plus bioavailability increasing material (general statement); details: microspheres with lysophosphatidylcholine
Text: The material selected for these studies has been lysophosphatidylcholine (described above).

[3] = Insulin nasal in sheep, plasma glucose and plasma insulin
[4] = nasal, sodium deoxycholate; cited from earlier work
[5] = Comparative studies: nasal insulin with various materials with and without starch microspheres; type: in vivo; details: sheep; for decrease in plasma glucose and increase in absorption versus starch microspheres alone: nasal powder
Procedure: A series of studies were carried out to determine the effect on the administration of insulin of various enhancers with and without microsphere particles. All of the studies were carried out in sheep and the insulin was administered intranasally either in solution or powder formulation. The preparation of the various insulin formulations and the method of administration and result taking were all as described earlier.

[6] = dogs, powder with cellulosic material and Carbopol 934; cited from earlier work
[7] = rats, nasal polyacrylic acid gel, versus normal formulation; cited from earlier work
[8] = without enhancer; cited from earlier work
[9] = intranasal simple solution, 2 IU/kg
[10] = intranasal solution with 0.2% LPC
[11] = intranasal starch microspheres and LPC
[12] = intranasal starch microspheres and LPC, 2 IU/kg

Substance: insulin: Zn-crystallized highly purified semisynthetic human insulin (sheep studies)
- appearance of peak level [1]: rapidly
- dose response [1]: clear dose response relationship
- enhancement concept, outcome [2]: successful
- shape of plasma glucose profile versus intravenous insulin ([3]; intranasal insulin-microsphere-enhancer system): very similar to the one obtained for the intravenous insulin
- amount of insulin absorbed [3, 9]: very low
- effect on plasma glucose level [3, 9]: does not have a significant effect
- amount of insulin appearing in the circulation [3, 10]: increases the amount of insulin appearing in the circulation
- plasma glucose level [3, 10]: somewhat lower
- decline of insulin level after peak [3, 11]: decreases rapidly as for intravenous insulin
- relative bioavailability versus subcutaneous injection [3, 11]: about 25%
- time of peak insulin level [3, 11]: 15 to 20 min
- increase in AUC of plasma insulin versus simple nasal solution [3, 12]: 693%
- increase in peak insulin level versus simple nasal solution [3, 12]: 1040%
- effect of increasing amounts of bile salt on absorption [4]: striking effect
- shape of absorption profile ([5]; nasal): sharp peak
- plasma glucose level versus insulin in GDC solution ([5]; nasal 2 IU/kg, GDC 0.08 mg/kg and starch microspheres 2.5 mg/kg): decreased considerably more
- absorption (plasma insulin levels) ([5]; nasal 2 IU/kg, GDC and starch microspheres): enhanced absorption
- decrease in plasma glucose and increase in absorption versus starch microspheres alone ([5]; starch microspheres with N-acetyl cysteine): considerably increased
- decrease in plasma glucose and increase in absorption versus starch microspheres alone ([5]; starch microspheres with aprotinin): considerably increased
- effect on plasma glucose levels versus LPC-M alone in solution ([5]; nasal, LPC-M and starch microspheres): considerably increased effect
- absorption after nasal application [6]: increase the absorption
- plasma glucose levels [7]: significant decrease
- absorption efficiency across the nasal membrane [8]: about 1.2 % of the administered dose
